Non-standard residues stand in square brackets, D forms with d. Nle = CCCC[C@H](N)C(=O)O
Biological target: Melanocortin-1 Receptor (human, UniProt Q01726 1-317)
Test: cell-based or functional assay

Melanocortin-1 Receptor, sequence (Q01726 whole entry): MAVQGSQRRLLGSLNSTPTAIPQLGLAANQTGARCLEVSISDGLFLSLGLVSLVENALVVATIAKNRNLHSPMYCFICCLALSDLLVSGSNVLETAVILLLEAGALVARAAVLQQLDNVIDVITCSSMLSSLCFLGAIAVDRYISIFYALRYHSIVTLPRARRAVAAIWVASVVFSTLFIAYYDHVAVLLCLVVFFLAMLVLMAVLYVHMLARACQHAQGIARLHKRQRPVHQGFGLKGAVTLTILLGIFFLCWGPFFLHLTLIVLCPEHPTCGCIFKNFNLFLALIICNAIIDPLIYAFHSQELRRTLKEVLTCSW

tyrosinase activity, concentration giving maximal stimulation, melanocyte strain 102b, 6 days: 0.1 nM
B1: CUV9900, Ac-Nle-Glu-His-D-Phe-Arg-Trp-NH2 (SEQ ID NO: 1) variation (peptide)
peptide: Ac-[Nle]EH[dF]RW-NH2
SMILES: CCCC[C@H](NC(C)=O)C(=O)N[C@@H](CCC(=O)O)C(=O)N[C@@H](Cc1c[nH]cn1)C(=O)N[C@H](Cc1ccccc1)C(=O)N[C@@H](CCCNC(=N)N)C(=O)N[C@@H](Cc1c[nH]c2ccccc12)C(N)=O

Reference: patent EP2487185A1 (Clinuvel Pharmaceuticals Limited, dated 2012)
